Experiment [1] has as its target T1, SARS-CoV-2 ORF7a (SARS-CoV-2 (Wuhan variant), UniProt P0DTC7 16-96).
T1 construct: also called open reading frame 7a; accessory protein ORF7a; not shown: twin strep tag, N-terminal, kept
T1 sequence: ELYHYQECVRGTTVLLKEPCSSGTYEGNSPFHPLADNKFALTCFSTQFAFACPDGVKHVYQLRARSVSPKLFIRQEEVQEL
Description: SPR. The conditions noted are these: both partners purified.

Experiment [2] deals with T2, SARS-CoV-2 ORF8 (SARS-CoV-2 (Wuhan variant), UniProt P0DTC8 16-121).
T2 construct: also called open reading frame 8; accessory protein ORF8; not shown: twin strep tag, N-terminal, kept
Description: negative stain electron microscopy. Particulars: both partners purified.

Where no end group is shown, it is not given here.

Usually Kd stands for the constant that tells how readily two partners part at equilibrium. A lower Kd goes with higher affinity. As usually defined, the stoichiometry N is the number of molecules, sites or subunits per partner or assembly.

T2 sequence (P0DTC8 16-121): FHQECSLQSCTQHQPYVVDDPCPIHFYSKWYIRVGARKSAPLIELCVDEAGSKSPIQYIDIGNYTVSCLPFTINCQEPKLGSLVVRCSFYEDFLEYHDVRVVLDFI

B1: LL-37 (peptide)
peptide: LLGDFFRKSKEKIGKEFKRIVQRIKDFLRNLVPRTES
notes: also called synthetic LL-37; human antimicrobial peptide LL-37; source: synthetic peptide, bought: Invivogen
Turning to B1, the Kd in experiment [1] came out at 138 nM.

B2: gold-labeled LL-37 (peptide)
peptide: LLGDFFRKSKEKIGKEFKRIVQRIKDFLRNLVPRTES
modifications: also: directly conjugated with colloidal gold
notes: also called LL-37 directly conjugated with colloidal gold; source: synthetic peptide, bought: Invivogen; conjugated with colloidal gold
For the molecule B2, in experiment [2], the “stoichiometry N” value amounted to 1.

For the origin of these results see publication PMC12500691 (Frontiers in Cellular and Infection Microbiology, 2025).
